According to publication PMC10477243, “Molecular basis of RNA-binding and autoregulation by the cancer-associated splicing factor RBM39” (Nature Communications, 2023):

T1: RBM39 RRM2 (UniProt Q14498 250-328)
T1 sequence: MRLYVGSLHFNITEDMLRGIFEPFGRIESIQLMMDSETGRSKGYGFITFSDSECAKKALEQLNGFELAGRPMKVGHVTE

T2: SF3b155 ULM peptide KSRWDETP
T2 construct: ULM (UHM ligand motif) of SF3b155 (SF3B1)
T2 peptide: KSRWDETP

T3: RBM39 RRM2 F259A (UniProt Q14498 250-328, F259A)
T3 sequence: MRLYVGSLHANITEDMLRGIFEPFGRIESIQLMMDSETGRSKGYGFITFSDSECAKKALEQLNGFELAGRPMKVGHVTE


Experiments:
[1] = target: T1, RBM39 RRM2; test: NMR titration; ITC: RRM2/RRM12 in 10 mM Na phosphate pH 6.8, 50 mM NaCl, 2 mM DTT; RRM1 in the same at pH 5.5; 40 C (RRM12 with ssSL3 at 35 C); NMR 200 uM protein in the same; conditions: protein: recombinant; tags: His tag removed by thrombin
[2] = target: T2, SF3b155 ULM peptide KSRWDETP; test: ITC; PEAQ-ITC (Malvern); Buffer G (sodium phosphate 10 mM pH 7.2, NaCl 50 mM, TCEP 0.5 mM); protein 300 μM in the syringe, ligand (peptide) 30 μM in the cell; conditions: both partners purified
[3] = target: T1, RBM39 RRM2; test: ITC; n=1.18; ITC: RRM2/RRM12 in 10 mM Na phosphate pH 6.8, 50 mM NaCl, 2 mM DTT; RRM1 in the same at pH 5.5; 40 C (RRM12 with ssSL3 at 35 C); NMR 200 uM protein in the same; conditions: protein: recombinant; tags: His tag removed by thrombin
[4] = target: T3, RBM39 RRM2 F259A; test: ITC; n=1.27; ITC: RRM2/RRM12 in 10 mM Na phosphate pH 6.8, 50 mM NaCl, 2 mM DTT; RRM1 in the same at pH 5.5; 40 C (RRM12 with ssSL3 at 35 C); NMR 200 uM protein in the same; conditions: protein: recombinant

Row | Kd [2] [µM] | Binder | binding result [1] | further results
1 |  | CUCUUUG (ssRNA) [BS1] | binds | 
2 |  | CCUCCCA (ssRNA) [mutBS1] | no binding | 
3 | 19 ± 5 | RBM39 RRM3 (domain or fragment, Construct limits not printed (cited paper); 418-530 is the customary RRM3/UHM construct, covering the annotated RRM3 445-508 and the C-terminus) VQPLATQCFQLSNMFNPQTEEEVGWDTEIKDDVIEECNKHGGVIHIYVDKNSAQGNVYVKCPSIAAAIAAVNALHGRWFAGKMITAAYVPLPTYHNLFPDSMTATQLLVPSRR |  | dH [2]: -20 kcal/mol; stoichiometry N [2]: 0.65
4 | > 100 | RBM39 mRRM3 (domain or fragment, Construct limits not printed (cited paper); same conventional limits as wild-type RRM3) VQPLATQCFQLSNMFNPQTEEEVGWDTEIKDDVIEECNKHGGVIHIYVDKNSAQGNVYVKCPSIAAAIAAVNALHGAWAAGKMITAAYVPLPTYHNLFPDSMTATQLLVPSRR |  | 
5 |  | AGCUUUG (ssRNA) |  | Kd [3]: 9 ± 2 µM; Kd [4]: 41 ± 10 µM
